Data as given in patent US20140072613A1, “Compositions and Methods for Treating Cutaneous Scarring” (priority 2012, published 2014).

Columns and labels:
Assay in all cases: biochemical
Format in all cases: biochemical
266 human kinases [1] = target: 266 human kinases (Homo sapiens, UniProt O43293); settings: ZIPK(h); 100 μM
Procedure, shortened: (§1)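 A filter-capture radiometric assay: phosphorylated cationic substrate binds an anionic membrane and is scintillation-counted, with values referenced to full-activity control.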

266 human kinases [2] = target: 266 human kinases (Homo sapiens, UniProt O96017, I157T); settings: CHK2(I157T)(h); 100 μM
Sequence of 266 human kinases (Homo sapiens, UniProt O96017, I157T) (O96017 whole entry I157T): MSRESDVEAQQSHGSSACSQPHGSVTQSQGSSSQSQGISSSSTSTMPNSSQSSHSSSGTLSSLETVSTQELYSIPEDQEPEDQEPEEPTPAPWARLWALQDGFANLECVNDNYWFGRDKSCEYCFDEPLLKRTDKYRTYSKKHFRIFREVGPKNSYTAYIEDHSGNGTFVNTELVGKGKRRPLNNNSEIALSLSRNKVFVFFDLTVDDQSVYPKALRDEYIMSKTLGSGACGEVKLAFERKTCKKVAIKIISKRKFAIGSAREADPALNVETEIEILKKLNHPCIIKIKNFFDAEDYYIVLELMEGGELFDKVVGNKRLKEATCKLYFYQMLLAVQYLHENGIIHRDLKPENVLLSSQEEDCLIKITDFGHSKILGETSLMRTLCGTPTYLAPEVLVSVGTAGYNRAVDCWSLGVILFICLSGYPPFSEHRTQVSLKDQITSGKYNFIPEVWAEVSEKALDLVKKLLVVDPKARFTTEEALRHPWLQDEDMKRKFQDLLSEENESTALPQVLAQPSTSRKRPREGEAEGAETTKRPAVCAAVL
Procedure, shortened: as §1

266 human kinases [3] = target: 266 human kinases (Homo sapiens, UniProt P05129); settings: PKCγ(h); 100 μM
Procedure, shortened: as §1

266 human kinases [4] = target: 266 human kinases (Homo sapiens, UniProt P05771); settings: PKCβI(h); 100 μM
Procedure, shortened: as §1

266 human kinases [5] = target: 266 human kinases (Homo sapiens, UniProt P06241); settings: Fyn(h); 100 μM
Procedure, shortened: as §1

266 human kinases [6] = target: 266 human kinases (Homo sapiens, UniProt P08581); settings: Met(h); 100 μM
Procedure, shortened: as §1

266 human kinases [7] = target: 266 human kinases (Homo sapiens, UniProt P08631); settings: 100 μM
Sequence of 266 human kinases (Homo sapiens, UniProt P08631) (P08631 whole entry): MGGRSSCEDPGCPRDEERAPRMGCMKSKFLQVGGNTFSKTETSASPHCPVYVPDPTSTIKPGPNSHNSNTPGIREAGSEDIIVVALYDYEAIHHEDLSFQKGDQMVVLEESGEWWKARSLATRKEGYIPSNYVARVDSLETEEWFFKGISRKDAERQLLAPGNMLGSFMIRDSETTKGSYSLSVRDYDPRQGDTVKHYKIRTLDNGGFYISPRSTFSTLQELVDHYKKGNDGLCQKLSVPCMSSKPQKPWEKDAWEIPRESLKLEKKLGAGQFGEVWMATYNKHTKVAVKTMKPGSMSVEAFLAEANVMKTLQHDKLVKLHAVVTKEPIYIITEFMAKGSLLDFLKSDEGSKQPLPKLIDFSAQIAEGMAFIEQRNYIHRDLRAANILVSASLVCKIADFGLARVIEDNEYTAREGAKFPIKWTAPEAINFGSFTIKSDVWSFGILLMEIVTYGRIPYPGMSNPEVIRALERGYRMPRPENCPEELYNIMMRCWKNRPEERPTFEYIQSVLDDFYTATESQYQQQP
Procedure, shortened: as §1

266 human kinases [8] = target: 266 human kinases (Homo sapiens, UniProt P14616); settings: IRR(h); 100 μM
Sequence of 266 human kinases (Homo sapiens, UniProt P14616) (P14616 27-1297): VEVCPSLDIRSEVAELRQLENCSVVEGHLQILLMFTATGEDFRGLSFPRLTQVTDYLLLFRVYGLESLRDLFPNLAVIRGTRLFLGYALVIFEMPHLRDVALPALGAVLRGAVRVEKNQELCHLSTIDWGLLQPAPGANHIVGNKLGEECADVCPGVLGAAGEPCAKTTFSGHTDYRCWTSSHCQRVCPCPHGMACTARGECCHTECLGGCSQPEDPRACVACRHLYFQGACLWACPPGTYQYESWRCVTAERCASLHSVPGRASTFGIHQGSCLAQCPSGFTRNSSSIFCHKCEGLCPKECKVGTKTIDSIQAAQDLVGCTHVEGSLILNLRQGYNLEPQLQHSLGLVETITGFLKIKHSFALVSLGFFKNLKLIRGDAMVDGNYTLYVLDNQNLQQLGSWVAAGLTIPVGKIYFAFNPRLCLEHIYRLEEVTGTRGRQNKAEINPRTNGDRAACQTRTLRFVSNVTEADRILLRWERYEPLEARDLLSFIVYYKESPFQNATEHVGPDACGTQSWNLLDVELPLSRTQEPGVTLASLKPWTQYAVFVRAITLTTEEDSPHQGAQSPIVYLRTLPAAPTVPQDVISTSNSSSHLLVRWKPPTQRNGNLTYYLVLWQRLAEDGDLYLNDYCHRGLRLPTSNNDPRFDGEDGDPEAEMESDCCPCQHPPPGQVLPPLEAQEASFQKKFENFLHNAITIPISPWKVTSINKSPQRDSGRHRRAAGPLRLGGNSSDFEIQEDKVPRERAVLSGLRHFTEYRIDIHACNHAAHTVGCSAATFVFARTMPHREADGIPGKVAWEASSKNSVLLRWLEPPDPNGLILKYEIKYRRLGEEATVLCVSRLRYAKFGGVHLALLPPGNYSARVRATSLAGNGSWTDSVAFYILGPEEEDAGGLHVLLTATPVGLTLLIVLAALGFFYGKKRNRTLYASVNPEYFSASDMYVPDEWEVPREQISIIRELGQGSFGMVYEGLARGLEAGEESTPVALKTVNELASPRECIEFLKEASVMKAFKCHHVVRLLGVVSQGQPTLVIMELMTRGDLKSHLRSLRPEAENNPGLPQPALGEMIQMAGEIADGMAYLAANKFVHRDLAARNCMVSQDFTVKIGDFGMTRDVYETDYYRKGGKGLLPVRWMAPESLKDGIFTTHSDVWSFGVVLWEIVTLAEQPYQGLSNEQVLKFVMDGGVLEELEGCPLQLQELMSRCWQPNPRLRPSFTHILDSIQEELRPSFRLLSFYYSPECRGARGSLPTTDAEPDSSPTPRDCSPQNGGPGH
Procedure, shortened: as §1

266 human kinases [9] = target: 266 human kinases (Homo sapiens, UniProt P16591); settings: Fer(h); 100 μM
Sequence of 266 human kinases (Homo sapiens, UniProt P16591) (P16591 whole entry): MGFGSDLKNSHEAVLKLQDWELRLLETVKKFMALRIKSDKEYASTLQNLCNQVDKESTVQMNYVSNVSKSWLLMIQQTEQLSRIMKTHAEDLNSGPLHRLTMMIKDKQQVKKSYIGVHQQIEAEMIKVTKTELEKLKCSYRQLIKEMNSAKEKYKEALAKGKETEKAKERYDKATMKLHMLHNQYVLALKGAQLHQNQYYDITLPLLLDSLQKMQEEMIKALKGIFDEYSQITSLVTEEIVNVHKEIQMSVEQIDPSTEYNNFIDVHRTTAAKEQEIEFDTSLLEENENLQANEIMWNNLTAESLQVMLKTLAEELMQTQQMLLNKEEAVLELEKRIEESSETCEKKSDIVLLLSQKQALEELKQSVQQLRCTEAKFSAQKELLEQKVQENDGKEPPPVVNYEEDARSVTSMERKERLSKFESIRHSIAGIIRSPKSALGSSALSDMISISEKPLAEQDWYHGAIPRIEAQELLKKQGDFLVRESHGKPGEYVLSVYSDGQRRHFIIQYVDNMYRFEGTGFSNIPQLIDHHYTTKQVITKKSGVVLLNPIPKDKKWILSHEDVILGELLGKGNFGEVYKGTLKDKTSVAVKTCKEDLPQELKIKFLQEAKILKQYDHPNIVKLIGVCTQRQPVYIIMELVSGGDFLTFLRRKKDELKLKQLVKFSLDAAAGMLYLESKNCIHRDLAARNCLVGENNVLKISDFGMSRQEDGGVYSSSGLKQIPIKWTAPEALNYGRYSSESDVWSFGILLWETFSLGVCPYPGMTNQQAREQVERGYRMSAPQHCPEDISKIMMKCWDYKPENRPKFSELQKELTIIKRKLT
Procedure, shortened: as §1

266 human kinases [10] = target: 266 human kinases (Homo sapiens, UniProt P17948); settings: Flt1(h); 100 μM
Procedure, shortened: as §1

266 human kinases [11] = target: 266 human kinases (Homo sapiens, UniProt P42345); settings: 100 μM
Procedure, shortened: as §1

266 human kinases [12] = target: 266 human kinases (Homo sapiens, UniProt P52564); settings: MKK6(h); 100 μM
Procedure, shortened: as §1

266 human kinases [13] = target: 266 human kinases (Homo sapiens, UniProt P78362); settings: SRPK2(h); 100 μM
Procedure, shortened: as §1

266 human kinases [14] = target: 266 human kinases (Homo sapiens, UniProt P80192); settings: MLK1(h); 100 μM
Procedure, shortened: as §1

266 human kinases [15] = target: 266 human kinases (Homo sapiens, UniProt Q05655); settings: PKGδ(h); 100 μM
Procedure, shortened: as §1

266 human kinases [16] = target: 266 human kinases (Homo sapiens, UniProt Q8TDX7); settings: NEK7(h); 100 μM
Procedure, shortened: as §1

266 human kinases [17] = target: T1, 266 human kinases (Homo sapiens, UniProt Q9BXA7); settings: TSSK1(h); 100 μM
T1 sequence (Q9BXA7 1-367): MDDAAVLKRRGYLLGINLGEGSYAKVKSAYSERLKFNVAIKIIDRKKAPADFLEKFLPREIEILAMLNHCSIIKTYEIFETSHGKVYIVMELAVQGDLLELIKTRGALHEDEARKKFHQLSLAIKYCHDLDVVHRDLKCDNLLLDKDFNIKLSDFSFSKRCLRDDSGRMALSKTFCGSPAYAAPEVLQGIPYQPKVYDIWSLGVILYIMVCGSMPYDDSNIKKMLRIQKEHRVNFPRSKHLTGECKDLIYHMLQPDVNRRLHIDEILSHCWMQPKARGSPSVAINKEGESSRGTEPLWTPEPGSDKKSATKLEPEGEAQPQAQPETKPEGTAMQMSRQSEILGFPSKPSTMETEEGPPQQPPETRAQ
Procedure, shortened: as §1

266 human kinases [18] = target: 266 human kinases (Homo sapiens, UniProt Q9P286); settings: PAK5(h); 100 μM
Sequence of 266 human kinases (Homo sapiens, UniProt Q9P286) (Q9P286 whole entry): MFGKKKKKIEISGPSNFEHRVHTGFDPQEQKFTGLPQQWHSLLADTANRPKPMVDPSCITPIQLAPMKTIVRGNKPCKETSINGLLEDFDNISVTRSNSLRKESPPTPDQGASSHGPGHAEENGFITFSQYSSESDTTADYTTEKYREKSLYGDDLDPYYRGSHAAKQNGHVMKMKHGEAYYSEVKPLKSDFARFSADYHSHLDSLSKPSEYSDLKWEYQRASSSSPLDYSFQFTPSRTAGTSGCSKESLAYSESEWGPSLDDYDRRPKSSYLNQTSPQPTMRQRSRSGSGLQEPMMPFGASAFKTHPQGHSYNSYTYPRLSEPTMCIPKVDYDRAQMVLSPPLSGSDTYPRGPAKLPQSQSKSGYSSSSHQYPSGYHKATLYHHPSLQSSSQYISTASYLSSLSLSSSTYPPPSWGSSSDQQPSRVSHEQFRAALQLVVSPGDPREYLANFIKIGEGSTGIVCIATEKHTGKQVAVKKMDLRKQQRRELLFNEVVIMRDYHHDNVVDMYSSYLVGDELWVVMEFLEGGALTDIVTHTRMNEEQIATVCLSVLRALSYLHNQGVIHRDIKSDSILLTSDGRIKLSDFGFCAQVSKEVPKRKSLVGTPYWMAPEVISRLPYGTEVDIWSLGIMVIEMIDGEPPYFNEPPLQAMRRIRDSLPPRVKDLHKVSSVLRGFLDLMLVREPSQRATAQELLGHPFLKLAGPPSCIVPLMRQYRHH
Procedure, shortened: as §1

266 human kinases [19] = target: T2, 266 human kinases (Homo sapiens, UniProt Q9UHD2); settings: TBK1(h); 100 μM
T2 sequence (Q9UHD2 1-729): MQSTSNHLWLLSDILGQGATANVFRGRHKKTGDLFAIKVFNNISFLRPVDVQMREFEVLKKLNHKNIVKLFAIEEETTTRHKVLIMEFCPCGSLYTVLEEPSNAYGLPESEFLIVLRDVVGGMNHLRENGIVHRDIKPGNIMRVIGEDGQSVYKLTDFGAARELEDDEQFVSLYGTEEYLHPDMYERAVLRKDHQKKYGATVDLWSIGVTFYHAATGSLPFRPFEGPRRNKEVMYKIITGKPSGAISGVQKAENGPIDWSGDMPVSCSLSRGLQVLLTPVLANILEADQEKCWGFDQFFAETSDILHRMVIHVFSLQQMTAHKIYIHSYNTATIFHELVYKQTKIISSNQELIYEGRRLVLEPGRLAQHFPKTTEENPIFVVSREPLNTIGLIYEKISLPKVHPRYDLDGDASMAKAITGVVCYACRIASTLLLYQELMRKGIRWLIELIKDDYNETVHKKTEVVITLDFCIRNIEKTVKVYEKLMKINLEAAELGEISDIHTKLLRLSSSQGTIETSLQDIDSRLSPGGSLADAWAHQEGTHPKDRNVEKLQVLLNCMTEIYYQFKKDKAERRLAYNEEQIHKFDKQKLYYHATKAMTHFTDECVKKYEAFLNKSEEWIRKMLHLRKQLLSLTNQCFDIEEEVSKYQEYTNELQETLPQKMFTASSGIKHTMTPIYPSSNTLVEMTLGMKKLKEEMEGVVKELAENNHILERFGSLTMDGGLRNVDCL
Procedure, shortened: as §1

266 human kinases [20] = target: 266 human kinases (Homo sapiens, UniProt Q9Y6E0); settings: MST3(h); 100 μM
Procedure, shortened: as §1

266 human kinases [21] = settings: for % activity: 100 μM; for off-target kinase inhibition: at 100 μM
Procedure, shortened: as §1

Sequence of 266 human kinases (Homo sapiens, UniProt O43293) (O43293 whole entry): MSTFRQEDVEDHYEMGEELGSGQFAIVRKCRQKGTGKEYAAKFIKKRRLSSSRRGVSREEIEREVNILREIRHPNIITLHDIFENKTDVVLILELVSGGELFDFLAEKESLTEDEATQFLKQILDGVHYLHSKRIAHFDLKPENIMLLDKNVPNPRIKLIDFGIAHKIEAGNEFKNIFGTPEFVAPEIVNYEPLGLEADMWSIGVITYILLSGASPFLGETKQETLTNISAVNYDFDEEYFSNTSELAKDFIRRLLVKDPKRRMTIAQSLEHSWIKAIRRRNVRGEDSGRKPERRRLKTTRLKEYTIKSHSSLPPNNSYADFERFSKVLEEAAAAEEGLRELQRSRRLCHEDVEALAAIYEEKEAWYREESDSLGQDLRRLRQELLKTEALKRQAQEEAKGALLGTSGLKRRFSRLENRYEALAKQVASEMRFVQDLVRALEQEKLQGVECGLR

| Sequence | % activity (266 human kinases [1]) | % activity (266 human kinases [2]) | % activity (266 human kinases [3]) | % activity (266 human kinases [4]) | % activity (266 human kinases [5]) | % activity (266 human kinases [6]) | % activity (266 human kinases [7]; Hck(h) activated) | % activity (266 human kinases [8]) | % activity (266 human kinases [9]) | % activity (266 human kinases [10]) | % activity (266 human kinases [11]; mTOR(h)) | % activity (266 human kinases [11]; mTOR/FKBP12(h)) | % activity (266 human kinases [12]) | % activity (266 human kinases [13]) | % activity (266 human kinases [14]) | % activity (266 human kinases [15]) | % activity (266 human kinases [16]) | % activity (266 human kinases [17]) | % activity (266 human kinases [18]) | % activity (266 human kinases [19]) | also measured |
| --- | --- | --- | --- | --- | --- | --- | --- | --- | --- | --- | --- | --- | --- | --- | --- | --- | --- | --- | --- | --- | --- |
| HRRIKAWLKKIKALARQLGVAA (mammal) [MMI-0500] | 1% | 3% | 6% | 1% | 83% | 27% | 67% | 10% | 196% | 27% | 135% | 140% | 18% | 80% | 43% | 61% | 89% | 46% | 125% | 16% | % activity (266 human kinases [7]; Hck(h)): 78%; % activity (266 human kinases [20]): 4%; % activity (266 human kinases [21]; PKCβII(h)): 3%; % activity (266 human kinases [21]; PKG1β(h)): 24%; off-target kinase inhibition (266 human kinases [21]): very limited off-target kinase inhibition |
| YARAAARQARAKALNRQLGVA (mammal) [MMI-0200] | 67% | 85% | 101% | 98% | 75% | 71% | 100% | 69% | 101% | 96% | 110% | 118% | 98% | 100% | 84% | 101% | 96% | 98% | 100% | 98% | % activity (266 human kinases [20]): 95%; % activity (266 human kinases [21]; MAPK1(h)): 97%; % activity (266 human kinases [21]; PKCβII(h)): 100%; % activity (266 human kinases [21]; PKG1β(h)): 57%; off-target kinase inhibition (266 human kinases [21]): very limited off-target kinase inhibition |
